Experimental data as given in PMC3433420.
“And” between values parts separate entries of the source, which are not always exact repeats. Equal values may be shown once. Read-outs that look alike come from different tables or passages of the source. Values belong to the substance of their own block, whether it stands above or below them.

How the values were obtained:
[1] = target: ITK (Homo sapiens) (UniProt Q08881); conditions: cited from earlier work
[2] = target: LYN (Homo sapiens) (UniProt P07948); conditions: cited from earlier work
[3] = target: VAV3 (Homo sapiens) (UniProt Q9UKW4); conditions: cited from earlier work
[4] = target: SOCS1 (Homo sapiens) (UniProt O15524); conditions: cited from earlier work
[5] = target: PIK3R1-NC (Homo sapiens) (UniProt P27986); conditions: cited from earlier work
[6] = target: SHC1-PTB (Homo sapiens) (UniProt P29353); conditions: cited from earlier work
[7] = target: YES1 (Homo sapiens) (UniProt P07947); conditions: cited from earlier work
[8] = target: SYK-C (Homo sapiens) (UniProt P43405); conditions: cited from earlier work
[9] = target: PIK3R1-NC (Homo sapiens) (UniProt P27986); conditions: cited from earlier work; remark: listed apart in the source
[10] = target: VAV2 (Homo sapiens) (UniProt P52735); conditions: cited from earlier work
[11] = target: RASA1-NC (Homo sapiens) (UniProt P20936); conditions: cited from earlier work
[12] = target: CRK (Homo sapiens) (UniProt P46108); conditions: cited from earlier work
[13] = target: VAV3 (Homo sapiens) (UniProt Q9UKW4); conditions: cited from earlier work; remark: listed apart in the source
[14] = target: PIK3R1-C (Homo sapiens) (UniProt P27986); conditions: cited from earlier work
[15] = target: SHC1 (Homo sapiens) (UniProt P29353); conditions: cited from earlier work
[16] = target: CRKL (Homo sapiens) (UniProt P46109); conditions: cited from earlier work
[17] = target: ABL2 SH2 domain (human) (UniProt P42684); experiment: peptide or protein array; SH2/PTB proteins spotted on aldehyde slides, rhodamine peptide titrated in buffer B (20 mM HEPES, 100 mM KCl, 0.1% Tween-20, 5 mM DTT, pH 7.8), 1 h at room temperature; replicate assays
[18] = target: BCAR3 SH2 domain (human) (UniProt O75815); experiment: as above
[19] = target: HCK SH2 domain (human) (UniProt P08631); experiment: as above
[20] = target: RASA1 tandem SH2 domains (human); experiment: as above
[21] = target: SYK tandem SH2 domains (human); experiment: as above
[22] = target: SH2B2 (Homo sapiens) (UniProt O14492); conditions: cited from earlier work
[23] = target: SLA2 (Homo sapiens) (UniProt Q9H6Q3); conditions: cited from earlier work
[24] = target: PLCG2-N (Homo sapiens) (UniProt P16885); conditions: cited from earlier work
[25] = target: PIK3R1-C (Homo sapiens) (UniProt P27986); conditions: cited from earlier work; remark: listed apart in the source
[26] = target: TNS3 (Homo sapiens) (UniProt Q68CZ2); conditions: cited from earlier work
[27] = target: YES1 (Homo sapiens) (UniProt P07947); conditions: cited from earlier work; remark: listed apart in the source
[28] = target: TNS1 (Homo sapiens) (UniProt Q9HBL0); conditions: cited from earlier work
Sequence of TNS1 (Homo sapiens) (Q9HBL0 1562-1681): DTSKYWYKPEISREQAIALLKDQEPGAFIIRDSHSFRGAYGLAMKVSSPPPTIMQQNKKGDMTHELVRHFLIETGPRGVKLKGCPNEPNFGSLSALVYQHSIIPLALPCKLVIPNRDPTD

Sequence of PIK3R1-NC (Homo sapiens) (P27986 328-723): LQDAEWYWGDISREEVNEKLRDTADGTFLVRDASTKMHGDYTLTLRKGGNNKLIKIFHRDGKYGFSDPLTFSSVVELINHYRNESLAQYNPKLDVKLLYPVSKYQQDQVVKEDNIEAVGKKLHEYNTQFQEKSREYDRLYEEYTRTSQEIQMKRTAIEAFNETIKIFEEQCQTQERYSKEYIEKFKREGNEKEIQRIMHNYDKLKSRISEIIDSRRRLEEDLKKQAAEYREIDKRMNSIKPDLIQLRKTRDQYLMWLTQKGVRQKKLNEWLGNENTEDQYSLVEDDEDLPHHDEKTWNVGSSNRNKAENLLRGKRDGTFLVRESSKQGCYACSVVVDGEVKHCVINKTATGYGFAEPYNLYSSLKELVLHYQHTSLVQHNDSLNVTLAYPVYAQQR
Sequence of PIK3R1-C (Homo sapiens) (P27986 328-723): as above
Sequence of VAV3 (Homo sapiens) (Q9UKW4 667-771): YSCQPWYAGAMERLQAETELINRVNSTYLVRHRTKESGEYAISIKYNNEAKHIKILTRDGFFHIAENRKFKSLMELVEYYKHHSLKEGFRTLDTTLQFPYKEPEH
Sequence of BCAR3 SH2 domain (human) (O75815 154-253): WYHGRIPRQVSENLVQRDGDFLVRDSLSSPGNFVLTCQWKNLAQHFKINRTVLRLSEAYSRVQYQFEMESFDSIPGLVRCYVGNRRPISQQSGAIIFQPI
Sequence of ABL2 SH2 domain (human) (P42684 173-263): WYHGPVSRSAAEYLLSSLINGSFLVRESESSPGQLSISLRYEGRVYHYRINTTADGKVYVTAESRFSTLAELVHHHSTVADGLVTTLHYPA
Sequence of YES1 (Homo sapiens) (P07947 153-260): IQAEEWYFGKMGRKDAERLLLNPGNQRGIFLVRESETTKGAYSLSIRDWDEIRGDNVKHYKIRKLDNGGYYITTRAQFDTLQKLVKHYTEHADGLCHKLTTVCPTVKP
Sequence of SH2B2 (Homo sapiens) (O14492 412-520): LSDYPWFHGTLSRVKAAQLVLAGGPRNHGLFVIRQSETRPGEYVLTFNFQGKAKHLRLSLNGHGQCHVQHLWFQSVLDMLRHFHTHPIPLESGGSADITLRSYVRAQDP
Sequence of RASA1-NC (Homo sapiens) (P20936 176-446): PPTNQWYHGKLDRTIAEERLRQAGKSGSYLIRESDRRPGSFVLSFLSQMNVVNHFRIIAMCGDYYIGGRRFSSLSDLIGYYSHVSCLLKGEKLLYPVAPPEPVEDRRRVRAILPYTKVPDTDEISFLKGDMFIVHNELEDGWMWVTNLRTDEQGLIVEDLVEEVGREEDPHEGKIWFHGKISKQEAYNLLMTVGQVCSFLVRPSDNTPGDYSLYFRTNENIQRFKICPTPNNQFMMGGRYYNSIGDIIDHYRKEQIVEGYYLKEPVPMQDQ
Sequence of ITK (Homo sapiens) (Q08881 234-343): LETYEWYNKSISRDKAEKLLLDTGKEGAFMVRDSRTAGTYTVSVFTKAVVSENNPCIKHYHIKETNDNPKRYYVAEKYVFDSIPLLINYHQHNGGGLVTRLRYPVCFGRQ
Sequence of PLCG2-N (Homo sapiens) (P16885 527-740): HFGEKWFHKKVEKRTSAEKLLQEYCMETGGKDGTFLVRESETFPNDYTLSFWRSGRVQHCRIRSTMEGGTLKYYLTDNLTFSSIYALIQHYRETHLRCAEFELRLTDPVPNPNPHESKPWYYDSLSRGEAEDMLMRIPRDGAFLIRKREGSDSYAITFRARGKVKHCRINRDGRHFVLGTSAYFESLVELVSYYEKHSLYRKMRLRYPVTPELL
Sequence of CRKL (Homo sapiens) (P46109 9-107): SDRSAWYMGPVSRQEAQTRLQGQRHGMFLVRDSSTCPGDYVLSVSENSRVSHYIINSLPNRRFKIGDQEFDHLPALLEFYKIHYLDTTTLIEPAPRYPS
Sequence of CRK (Homo sapiens) (P46108 8-123): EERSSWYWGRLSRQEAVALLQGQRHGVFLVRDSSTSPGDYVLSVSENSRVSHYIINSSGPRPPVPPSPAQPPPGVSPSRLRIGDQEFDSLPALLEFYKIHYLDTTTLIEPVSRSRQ
Sequence of SLA2 (Homo sapiens) (Q9H6Q3 89-196): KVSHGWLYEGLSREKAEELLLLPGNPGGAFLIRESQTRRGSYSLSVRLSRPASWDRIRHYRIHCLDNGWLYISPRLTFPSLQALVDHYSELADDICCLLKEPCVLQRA
Sequence of SOCS1 (Homo sapiens) (O15524 74-179): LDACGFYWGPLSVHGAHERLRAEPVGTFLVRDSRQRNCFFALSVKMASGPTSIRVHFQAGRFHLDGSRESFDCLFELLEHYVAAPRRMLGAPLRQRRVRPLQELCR
Sequence of HCK SH2 domain (human) (P08631 144-241): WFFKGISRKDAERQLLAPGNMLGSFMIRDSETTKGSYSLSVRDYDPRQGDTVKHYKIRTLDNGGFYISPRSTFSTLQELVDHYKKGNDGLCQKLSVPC
Sequence of SHC1 (Homo sapiens) (P29353 483-583): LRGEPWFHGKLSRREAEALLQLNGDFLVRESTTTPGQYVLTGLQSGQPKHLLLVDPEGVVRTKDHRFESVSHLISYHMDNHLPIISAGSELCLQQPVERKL
Sequence of SHC1-PTB (Homo sapiens) (P29353 483-583): as above
Sequence of VAV2 (Homo sapiens) (P52735 668-772): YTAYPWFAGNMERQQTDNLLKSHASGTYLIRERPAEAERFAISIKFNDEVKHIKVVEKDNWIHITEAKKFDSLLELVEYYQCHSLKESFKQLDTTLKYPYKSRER
Sequence of TNS3 (Homo sapiens) (Q68CZ2 1167-1287): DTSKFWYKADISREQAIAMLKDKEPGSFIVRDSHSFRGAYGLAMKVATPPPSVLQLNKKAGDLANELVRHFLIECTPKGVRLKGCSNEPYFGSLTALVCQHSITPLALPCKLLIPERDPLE
Sequence of LYN (Homo sapiens) (P07948 124-231): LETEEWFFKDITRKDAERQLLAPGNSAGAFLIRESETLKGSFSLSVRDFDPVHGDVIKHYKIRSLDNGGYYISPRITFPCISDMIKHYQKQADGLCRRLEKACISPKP

Substance: …pYLVPQQGF
apparent Kd (screen) [1]: 445 nM | apparent Kd (screen) [2]: 2000 nM | apparent Kd (screen) [3]: 2000 nM | apparent Kd (screen) [4]: 2000 nM | apparent Kd (screen) [5]: 1640 nM | apparent Kd (screen) [6]: 2000 nM | apparent Kd (screen) [7]: 1170 nM

Substance: …pYLIPQQGFd
apparent Kd (screen) [8]: 934 nM | apparent Kd (screen) [9]: 175 nM | apparent Kd (screen) [10]: 2000 nM | apparent Kd (screen) [11]: 1420 nM

Substance: …pYEEMRAFQ
apparent Kd (screen) [12]: 1500 nM | apparent Kd (screen) [13]: 2000 nM | apparent Kd (screen) [14]: 64 nM | apparent Kd (screen) [15]: 999 nM | apparent Kd (screen) [16]: 1250 nM

Kd [17]: 60.6 nM and 306 nM | Kd [18]: 610 nM and 1170 nM | Kd [19]: 827 nM | Kd [20]: 318 nM | Kd [21]: 164 nM and 649 nM
Substance: ErbB4 pY1262 phosphopeptide, rhodamine-labelled, for protein microarrays

Substance: …pYWDQDPPE
apparent Kd (screen) [22]: 1470 nM | apparent Kd (screen) [23]: 2000 nM | apparent Kd (screen) [24]: 2000 nM | apparent Kd (screen) [25]: 2000 nM | apparent Kd (screen) [26]: 1290 nM | apparent Kd (screen) [27]: 2000 nM | apparent Kd (screen) [28]: 2000 nM
